According to patent publication US7927849B2, “Laccase enzyme and use thereof” (AB Enzymes OY, priority 2004, dated 2011):

Legend:
[1] = Denim bleaching at different temperatures (Launder Ometer); settings: 200 nkat/g, 30 min, pH 6
Procedure: The test system and denim were as in Example 7, except that the conditions during the laccase and mediator treatment in Launder were 30 min, pH 6 and temperature 30-80° C. Also, the enzyme was inactivated by an alkaline treatment instead of raising the temperature in Launder as follows. After removing swatches from the containers they were soaked in warm water containing NaOH (pH 11.5) for 10 min and rinsed carefully with warm water. The swatches were dried half-dry in a tumbler and after that air dried. The bleaching effect was evaluated by measuring the colour as reflectance values as in Example 7.

[2] = Denim bleaching: laccase-mediator (100 nkat/g, 5 mg/g, 30 min, 60° C.) compared to sodium hypochlorite (15 min, 40° C.)
Procedure: Different types of demin were treated with a TaLcc1 laccase product from Trichoderma strain RF5597 and DeniLite II Base from Novozymes and the results obtained were compared to hypochlorite bleaching. All together 27 pieces of different kinds of denim (whole jeans), which had been previously washed with cellulase after desizing to different abrasion levels or had been only desized with ECOSTONE®A200 (60° C., 10 min), were collected for the test (Table 15). The jeans were made of Indigo dyed denim, except the English jeans contained Indigo dyed denim with sulphur bottom. Jeans were cut in such a way that pieces from the same pair of jeans could be used for all tests.
The jeans were made of Indigo dyed denim (right hand twill), except the English jeans contained Indigo dyed denim with sulphur bottom. The weights of the original (i.e. not desized) denim fabrics were typically higher than 475 g/m^2 (14 oz/yd^2). The weights of three 10 cm×10 cm pieces were measured after 24 hours incubation at room temperature (ca. 22° C. and at relative moisture ca. 64%).
The laccase treatments were performed with Electrolux's Wascator FOM 71 CLS washer extractor under optimal conditions for each enzyme, described in Table 16. Methyl syringate (Example 7) was used as a mediator. Laccase was inactivated after draining by raising the pH above 11 by NaOH (10 min, 60° C.) and rinsing for three times. The fabrics were dried in a tumbler.
The sodium hypochlorite bleaching was performed with Electrolux's Wascator FOM 71 CLS washer extractor using denim obtained from the same jeans as in laccase treatments under conditions described in Table 17. Sodium hydroxide was added before adding 25 ml/l of 10% sodium hypochlorite solution (Klorite Forte, Farmos Oy) to keep the pH above 10.5 during the treatment. After draining the bleach liquor, there was one 2 minutes rinsing step with the liquor ratio of 1:20 before dechlorinating with sodium thiosulphate. After dechlorinating the denim samples were rinsed 3 times for 2 minutes with the liquor ratio of 1:20. The fabrics were dried in a tumbler.
The bleaching effect was evaluated by measuring the colour as reflectance values as in Example 7. […] Different looks were obtained depending on the type of the denim and cellulase treatment used. “Sulphur-bottom type” denim was the most difficult to bleach.

[3] = all cellulase treated denim samples
[4] = sample B1: Basic Jeans, Ecostone P1250
[5] = sample E1: English jeans (sulphur bottom), desized only
[6] = sample E2: English jeans, Ecostone NP2000
[7] = sample E3: English jeans, Rocksoft NCE-EA
[8] = sample E4: English jeans, Rocksoft NCE-2X
[9] = sample E5: English jeans, Ecostone L900
[10] = sample E6: English jeans, Ecostone L900
[11] = sample E7: English jeans, Ecostone L900
[12] = sample L1: Lee Cooper jeans, desized only
[13] = sample L2: Lee Cooper jeans, Ecostone L
[14] = sample L3: Lee Cooper jeans, Biotouch C29
[15] = sample L4: Lee Cooper jeans, Ecostone L
[16] = sample L5: Lee Cooper jeans, Indiage Max L
[17] = sample L6: Lee Cooper jeans, Indiage Super L
[18] = sample L7: Lee Cooper jeans, Ecostone CXP500 Exper.
[19] = sample L8: Lee Cooper jeans, Ecostone CXP experimental
[20] = sample L9: Lee Cooper jeans, Ecostone N400
[21] = sample T1: Tincan jeans, desized only
[22] = sample T2: Tincan jeans, Ecostone N400
[23] = sample T3: Tincan jeans, Ecostone L300
[24] = sample T4: Tincan jeans, Denimax 991S
[25] = sample W1: Warric jeans, desized only
[26] = sample W2: Warric jeans, Ecostone P4500
[27] = sample W3: Warric jeans, Indiage Max G
[28] = sample W4: Warric jeans, Ecostone NP2000
[29] = sample W5: Warric jeans, Ecostone L900
[30] = sample W6: Warric jeans, Denabraide MBL 65 E

B1: TaLcc1: Recombinant Thielavia arenaria ALKO4197 laccase 1 (SEQ ID NO: 12) produced in Trichoderma reesei strains RF5597/RF5598 (protein)
chain: MKSWAAAVALMVGILSPHAAAAPPANPVQRDMLQVLEARQSGPTCNTPSNRACWTNGFDINTDYEVSTPNTGRTVAYQLTLTEKENWIGPDGVLKNVVMLVNDKIIGPTIRANWGDNIEVTVINNLKTNGTSMHWHGLRQLGNVFNDGANGVTECPIPPKGGRKTYKFRATQYGTSWYHSHFSAQYGNGVVGTIQIDGPASLPYDIDLGVFPLMDYYYRSADELVHFTQSNGAPPSDNVLFNGTARHPETGAGQWYNVTLTPGKRHRLRIINTSTDNHFQVSLVGHNMTVIATDMVPVNAFTVSSLFLAVGQRYDVTIDANSPVGNYWFNVTFGDGLCGSSNNKFPAAIFRYQGAPATLPTDQGLPVPNHMCLDNLNLTPVVTRSAPVNNFVKRPSNTLGVTLDIGGTPLFVWKVNGSAINVDWGKPILDYVMSGNTSYPVSDNIVQVDAVDQWTYWLIENDPTNPIVSLPHPMHLHGHDFLVLGRSPDELPSAGVRHIFDPAKDLPRLKGNNPVRRDVTMLPAGGWLLLAFKTDNPGAWLFHCHIAWHVSGGLSVDFLERPNDLRTQLNSNAKRADRDDFNRVCREWNAYWPTNPFPKIDSGLRHRFVEESEWMVR
modifications: Thielavia arenaria ALKO4197; (1)..(617) Deduced amino acid sequence of Thielavia arenaria ALKO4197 laccase 1 (Ta Lcc1)
For B1, the “Increase of L*” value ([1]; mediator 0 mg/g, 80° C.) was 0.64, the “L* after laccase treatment” value ([1]; mediator 0 mg/g, 80° C.) was 30.27 and the “b* after laccase treatment” value ([1]; mediator 0 mg/g, 80° C.) was −18.62. For the same molecule, the “Increase of L*” value ([1]; mediator 10 mg/g, 30° C.) was 4.10, the “L* after laccase treatment” value ([1]; mediator 10 mg/g, 30° C.) was 33.68 and the “b* after laccase treatment” value ([1]; mediator 10 mg/g, 30° C.) was −19.17. For the same molecule, the “Increase of L*” value ([1]; mediator 10 mg/g, 40° C.) was 8.68, the “L* after laccase treatment” value ([1]; mediator 10 mg/g, 40° C.) was 37.49 and the “b* after laccase treatment” value ([1]; mediator 10 mg/g, 40° C.) was −18.64. For the same molecule, the “Increase of L*” value ([1]; mediator 10 mg/g, 50° C.) was 14.59, the “L* after laccase treatment” value ([1]; mediator 10 mg/g, 50° C.) was 42.99 and the “b* after laccase treatment” value ([1]; mediator 10 mg/g, 50° C.) was −17.06. The “Increase of L*” value ([1]; mediator 10 mg/g, 60° C.) was 18.42, the “L* after laccase treatment” value ([1]; mediator 10 mg/g, 60° C.) was 47.56 and the “b* after laccase treatment” value ([1]; mediator 10 mg/g, 60° C.) was −14.55. The “Increase of L*” value ([1]; mediator 10 mg/g, 70° C.) was 17.85, the “L* after laccase treatment” value ([1]; mediator 10 mg/g, 70° C.) was 46.94 and the “b* after laccase treatment” value ([1]; mediator 10 mg/g, 70° C.) was −13.82. The “Increase of L*” value ([1]; mediator 10 mg/g, 80° C.) was 9.85, the “L* after laccase treatment” value ([1]; mediator 10 mg/g, 80° C.) was 39.24 and the “b* after laccase treatment” value ([1]; mediator 10 mg/g, 80° C.) was −15.74. For the same molecule, the “bleaching better than DeniLite II Base” value [2, 3] was 55-200%, the “bleaching better than sodium hypochlorite” value [2, 3] was 60-115% and the “increase of L* better than DeniLite II Base” value ([2]; fabrics only desized) was “over 100%”. For the same molecule, the “increase of L* compared with sodium hypochlorite” value ([2]; fabrics only desized) was “equal or better”, the “Increase of L*” value [2, 4] was 17.71 and the “L* after treatment” value [2, 4] was 47.19. For the same molecule, the “b* after treatment” value [2, 4] was −12.75, the “Increase of L*” value [2, 5] was 5.24 and the “L* after treatment” value [2, 5] was 22.71. The “b* after treatment” value [2, 5] was −13.97, the “Increase of L*” value [2, 6] was 10.51 and the “L* after treatment” value [2, 6] was 35.99. The “b* after treatment” value [2, 6] was −14.08, the “Increase of L*” value [2, 7] was 11.26 and the “L* after treatment” value [2, 7] was 36.52. The “b* after treatment” value [2, 7] was −14.46, the “Increase of L*” value [2, 8] was 11.75 and the “L* after treatment” value [2, 8] was 38.79. For the same molecule, the “b* after treatment” value [2, 8] was −13.94, the “Increase of L*” value [2, 9] was 12.34 and the “L* after treatment” value [2, 9] was 37.53. For the same molecule, the “b* after treatment” value [2, 9] was −14.03, the “Increase of L*” value [2, 10] was 11.63 and the “L* after treatment” value [2, 10] was 34.17. For the same molecule, the “b* after treatment” value [2, 10] was −14.79, the “Increase of L*” value [2, 11] was 13.16 and the “L* after treatment” value [2, 11] was 36.00. For the same molecule, the “b* after treatment” value [2, 11] was −14.95, the “Increase of L*” value [2, 12] was 12.92 and the “L* after treatment” value [2, 12] was 33.13. For the same molecule, the “b* after treatment” value [2, 12] was −19.41, the “Increase of L*” value [2, 13] was 19.08 and the “L* after treatment” value [2, 13] was 50.89. The “b* after treatment” value [2, 13] was −13.17, the “Increase of L*” value [2, 14] was 19.21 and the “L* after treatment” value [2, 14] was 47.66. For the same molecule, the “b* after treatment” value [2, 14] was −14.82, the “Increase of L*” value [2, 15] was 18.97 and the “L* after treatment” value [2, 15] was 48.39. For the same molecule, the “b* after treatment” value [2, 15] was −13.83, the “Increase of L*” value [2, 16] was 19.24 and the “L* after treatment” value [2, 16] was 47.73. For the same molecule, the “b* after treatment” value [2, 16] was −14.28, the “Increase of L*” value [2, 17] was 17.17 and the “L* after treatment” value [2, 17] was 46.71. For the same molecule, the “b* after treatment” value [2, 17] was −14.68, the “Increase of L*” value [2, 18] was 15.75 and the “L* after treatment” value [2, 18] was 42.95. The “b* after treatment” value [2, 18] was −16.23, the “Increase of L*” value [2, 19] was 17.27 and the “L* after treatment” value [2, 19] was 46.73. For the same molecule, the “b* after treatment” value [2, 19] was −14.86, the “Increase of L*” value [2, 20] was 16.22 and the “L* after treatment” value [2, 20] was 45.02. The “b* after treatment” value [2, 20] was −14.91, the “Increase of L*” value [2, 21] was 9.80 and the “L* after treatment” value [2, 21] was 34.82. The “b* after treatment” value [2, 21] was −16.36, the “Increase of L*” value [2, 22] was 14.50 and the “L* after treatment” value [2, 22] was 42.70. For the same molecule, the “b* after treatment” value [2, 22] was −14.60, the “Increase of L*” value [2, 23] was 18.01 and the “L* after treatment” value [2, 23] was 47.09. The “b* after treatment” value [2, 23] was −14.04, the “Increase of L*” value [2, 24] was 16.37 and the “L* after treatment” value [2, 24] was 43.53. The “b* after treatment” value [2, 24] was −15.18, the “Increase of L*” value [2, 25] was 10.51 and the “L* after treatment” value [2, 25] was 28.54. For the same molecule, the “b* after treatment” value [2, 25] was −17.55, the “Increase of L*” value [2, 26] was 16.04 and the “L* after treatment” value [2, 26] was 42.16. For the same molecule, the “b* after treatment” value [2, 26] was −14.48, the “Increase of L*” value [2, 27] was 15.53 and the “L* after treatment” value [2, 27] was 44.08. For the same molecule, the “b* after treatment” value [2, 27] was −13.66, the “Increase of L*” value [2, 28] was 13.32 and the “L* after treatment” value [2, 28] was 39.54. The “b* after treatment” value [2, 28] was −14.72, the “Increase of L*” value [2, 29] was 16.52 and the “L* after treatment” value [2, 29] was 40.49. The “b* after treatment” value [2, 29] was −15.38, the “Increase of L*” value [2, 30] was 15.57 and the “L* after treatment” value [2, 30] was 39.58. For the same molecule, the “b* after treatment” value [2, 30] was −15.62.
